Article PMC7806223

Experiments:
[1] = molecular target: LH1 αβ heterodimer (Rhodopseudomonas palustris CGA009) (UniProt Q6N9L4); test: cryo-EM structure; RC-LH1_(16) complex purified from the ΔpufW strain (no protein-W); diluted in IMAC buffer (20 mM tris-HCl pH 8.0, 200 mM NaCl, 0.03% β-DDM); 2.80 Å
[2] = molecular target: LH1 αβ heterodimer (Rhodopseudomonas palustris CGA009) (UniProt Q6N9L4); test: cryo-EM structure; RC-LH1_(14)-W complex purified from the PufW-His strain; in IMAC buffer (20 mM tris-HCl pH 8.0, 200 mM NaCl, 0.03% β-DDM); 2.65 Å

In the case of “LH1 αβ heterodimer (from UniProt Q6N9L4 1-50; Q6N9L5 2-53) (complex)”, the stoichiometry N (αβ heterodimers in the closed ring) [1] is reported as 16 and the stoichiometry N (αβ heterodimers in the open ring) [2] is reported as 14.
